The values that follow come from US20250340655A1, “EPHA2-TARGETING ANTIBODIES AND THEIR APPLICATIONS IN CANCER TREATMENT” (TAIPEI MEDICAL UNIVERSITY, priority 2022, published 2025).

For one assay, the system named is BxPc-3 cells. The assay can be described thus: Antibody internalization (endocytosis) assay. In kind it is cell-based, human. As to conditions: BxPc-3, 1 h, 37° C. vs 4° C. (FIG. 6B). The procedure:
BxPc-3 cells were seeded on cover glasses placed in the wells of a 6-well culture plate. The BxPc-3 seeded glass slides were incubated with ephrin A1-Fc (Sino Biological) or IgG hSD5 for 1 h at 37° C. or 4° C. After washing with PBS, the cells were fixed with 100% ice methanol for 10 min. Next, the cells were stained with an FITC-conjugated anti-human Fc antibody and were subsequently mounted with ProLong Diamond Antifade Mountant comprising 4′,6-diamidino-2-phenylindole for nuclear counterstaining (Invitrogen). The cells were imaged using a confocal microscope (Leica Microsystems).

In another assay the test system is SNU-16, N87 and MKN-45. The assay is described as follows: MTS growth inhibition, gastric cancer cells. Type of assay: cell-based. As to conditions: 3 days (FIG. 15B). The protocol:
The growth inhibitory effect of hSD5-ADC on the three strains of gastric cancer cells were tested under different concentrations. At indicated concentrations interacted with the cancer cells for 3 days, and the effects on the growth of cancer cells were observed by MTS assay. […] (FIG. 15B)

The target in assay [1] is T1, EphA1 overexpressed on 293T cells (UniProt P21709 26-976, limits assumed).
T1 construct: whole, on cells
T1 sequence (looked up): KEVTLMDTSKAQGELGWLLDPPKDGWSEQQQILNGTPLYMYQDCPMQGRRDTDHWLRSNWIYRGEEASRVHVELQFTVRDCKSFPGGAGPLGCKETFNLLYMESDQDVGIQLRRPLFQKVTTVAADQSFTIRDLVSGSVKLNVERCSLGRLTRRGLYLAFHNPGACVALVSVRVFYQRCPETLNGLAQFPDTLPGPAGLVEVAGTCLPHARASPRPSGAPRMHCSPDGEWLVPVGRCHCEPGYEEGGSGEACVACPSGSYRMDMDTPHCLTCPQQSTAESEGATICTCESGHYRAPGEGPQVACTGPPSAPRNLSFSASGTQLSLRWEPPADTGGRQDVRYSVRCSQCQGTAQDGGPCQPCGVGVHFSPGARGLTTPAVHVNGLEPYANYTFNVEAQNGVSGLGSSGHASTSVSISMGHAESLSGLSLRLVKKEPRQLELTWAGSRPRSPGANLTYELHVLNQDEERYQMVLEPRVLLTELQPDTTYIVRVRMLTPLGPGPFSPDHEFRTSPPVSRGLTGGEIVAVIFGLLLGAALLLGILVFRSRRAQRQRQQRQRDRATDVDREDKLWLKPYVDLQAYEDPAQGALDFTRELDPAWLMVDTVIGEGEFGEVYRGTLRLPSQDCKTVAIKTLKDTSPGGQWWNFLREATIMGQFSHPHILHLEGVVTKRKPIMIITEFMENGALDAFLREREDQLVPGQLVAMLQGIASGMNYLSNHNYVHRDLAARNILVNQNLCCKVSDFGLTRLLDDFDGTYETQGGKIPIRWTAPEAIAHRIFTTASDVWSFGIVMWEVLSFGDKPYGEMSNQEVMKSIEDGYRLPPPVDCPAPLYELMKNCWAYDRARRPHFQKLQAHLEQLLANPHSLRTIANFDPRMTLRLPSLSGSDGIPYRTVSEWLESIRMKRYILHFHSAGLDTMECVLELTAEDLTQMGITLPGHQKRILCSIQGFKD
The assay is described as follows: flow cytometry on 293T cells overexpressing EphA1-A8. The protocol: (§1) To detect the binding specificity of scFv, 293T cells were transformed with EphA1-A8 plasmids individually for overexpression of different EphA molecules. The cell line was freshly prepared and washed with FACS buffer (2% FBS in PBS). The cells were seeded at 1×10⁵ cells/well into a 96-well Ubottom plate and incubated with scFv for 1 h at 4° C. After the plate was washed with FACS buffer, the anti-hemagglutinin (HA) antibody was added for scFv binding detection (scFv was fused with a HA tag) and subsequently developed using an FITC-conjugated secondary antibody. Finally, the cell binding signal was analyzed using a FACS can flow cytometer.

Assay [2] deals with T2, EphA6 overexpressed on 293T cells (UniProt Q9UF33 23-1036, limits assumed).
T2 construct: whole, on cells
T2 sequence (looked up): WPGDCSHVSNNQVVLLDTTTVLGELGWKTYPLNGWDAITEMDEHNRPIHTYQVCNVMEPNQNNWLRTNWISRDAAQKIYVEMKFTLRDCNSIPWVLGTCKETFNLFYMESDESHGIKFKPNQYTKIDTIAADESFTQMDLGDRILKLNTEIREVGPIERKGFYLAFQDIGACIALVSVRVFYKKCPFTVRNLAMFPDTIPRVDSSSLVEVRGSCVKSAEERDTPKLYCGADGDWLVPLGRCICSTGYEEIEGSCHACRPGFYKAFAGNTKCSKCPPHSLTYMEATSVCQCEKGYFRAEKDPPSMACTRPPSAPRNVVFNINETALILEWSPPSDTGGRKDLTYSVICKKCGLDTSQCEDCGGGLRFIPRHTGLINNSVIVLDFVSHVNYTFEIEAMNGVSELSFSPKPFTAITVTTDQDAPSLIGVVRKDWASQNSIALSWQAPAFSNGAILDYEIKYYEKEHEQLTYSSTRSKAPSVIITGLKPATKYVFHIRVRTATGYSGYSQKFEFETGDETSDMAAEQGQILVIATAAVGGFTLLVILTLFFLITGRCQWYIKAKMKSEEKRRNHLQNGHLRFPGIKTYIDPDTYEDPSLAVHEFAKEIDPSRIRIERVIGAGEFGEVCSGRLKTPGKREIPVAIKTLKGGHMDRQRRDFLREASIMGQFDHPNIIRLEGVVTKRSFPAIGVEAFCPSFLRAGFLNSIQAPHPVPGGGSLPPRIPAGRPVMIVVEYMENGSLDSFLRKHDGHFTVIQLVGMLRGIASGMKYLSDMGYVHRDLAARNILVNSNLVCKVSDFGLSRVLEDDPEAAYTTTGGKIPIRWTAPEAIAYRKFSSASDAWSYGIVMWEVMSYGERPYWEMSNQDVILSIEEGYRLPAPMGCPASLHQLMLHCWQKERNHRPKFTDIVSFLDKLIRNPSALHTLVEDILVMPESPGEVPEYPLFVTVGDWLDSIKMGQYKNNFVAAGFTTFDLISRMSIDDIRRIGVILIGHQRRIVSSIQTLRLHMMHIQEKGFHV
Described as above. The procedure: as §1

B1: IgG hSD5: complete humanized anti-EphA2 IgG (IgG1) of hSD5 (antibody, V domains shown)
VH: QVQLVESGGGLVQPGGSLRLSCAASGFTFSDYGMGWVRQAPGKGLEWVAGISAAGSFTPYGAAVKGRFTISRDNSKNTVYLQMNSLRAEDTAVYYCARIPSGYRAGEIYTWGQGTLVTVSS
VL: LTQPPSVSVSPGQTVRITCSGSSGSYGWYQQKSPGQAPVTLIYDNDKRPSGIPERFSGSSSGSTSTLTISGVQAEDEADYYCGSADSSTYVGMFGGGTKLTVL
As to B1, the “endocytosis after targeting EphA2” value with BxPc-3 cells was “endocytosed from the cell membrane into the cytoplasm”. For the same molecule, in the assay on SNU-16, N87 and MKN-45, the “growth inhibitory response of gastric cancer cells” value is given as “does not provide ideal inhibition effect”.

B2: Humanized scFv hSD5 (scFv)
scFv: LTQPPSVSVSPGQTVRITCSGSSGSYGWYQQKSPGQAPVTLIYDNDKRPSGIPERFSGSSSGSTSTLTISGVQAEDEADYYCGSADSSTYVGMFGGGTKLTVLGQSSRSSQVQLVESGGGLVQPGGSLRLSCAASGFTFSDYGMGWVRQAPGKGLEWVAGISAAGSFTPYGAAVKGRFTISRDNSKNTVYLQMNSLRAEDTAVYYCARIPSGYRAGEIYTWGQGTLVTVSS
notes: also called hSD5 scFv; Humanized scFv hSDS
Regarding B2, the binding result in assay [1] and in assay [2] was “no binding” throughout.
